# T1: Atg8 (1-116) K26P (S. cerevisiae, UniProt P38182 1-116, K26P)
# T1 sequence (looked up): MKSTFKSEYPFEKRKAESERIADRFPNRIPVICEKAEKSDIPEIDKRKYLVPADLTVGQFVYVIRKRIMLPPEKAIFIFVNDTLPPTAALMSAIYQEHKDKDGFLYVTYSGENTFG
# T2: Atg8 K26P (in the crystallised Atg40^237–252-Atg8 fusion) (S. cerevisiae, UniProt P38182 1-116, K26P)
# T2 construct: Atg8, S. cerevisiae (ScAtg8), residues 1-116; K26P introduced for stabilizing Atg8; the GST of the fusion stood before m15 and was cleaved; source: E. coli BL21 (DE3), purified (GST-accept resin, HRV 3C protease, SEC), on one chain with m15
# T2 sequence (looked up): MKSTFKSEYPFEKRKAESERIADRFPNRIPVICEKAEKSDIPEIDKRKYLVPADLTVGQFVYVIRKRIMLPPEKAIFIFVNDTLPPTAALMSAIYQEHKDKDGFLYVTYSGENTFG
# Experiments:
# Atg8 (1-116) K26P = molecular target: T1, Atg8 (1-116) K26P; assay: ITC; MicroCal iTC200, 25 °C; peptide in the syringe (FAM134B, SEC62, RTN3 0.5 mM; Atg40^234–252 2.0 mM; Atg40^237–252 1.8 mM), Atg8-family protein in the cell at 10 times lower concentration (1.8 mM Atg8 for Atg40^237–252 D243A D247A); 20 mM HEPES pH 6.8, 150 mM NaCl; single-site model; errors are fitting errors; details: both partners purified
# LC3C WT = LC3C WT (UniProt Q9BXW4 1-126); assay: ITC; peptide in the syringe (0.5 mM) titrated into 200 µl of the Atg8 homologue in the cell at a 10 times lower concentration; MicroCal iTC200, 25 °C, stirring at 1000 rpm; single-site binding model; N fixed to 1.0 when the fitting was not convergent due to weak interaction; errors are fitting errors; details: both partners purified
# LC3A WT [1] = molecular target: T3, LC3A WT (UniProt Q9H492 1-121); assay: as above; details: both partners purified
# GABARAPL2 WT [2] = molecular target: T4, GABARAPL2 WT (UniProt P60520 1-117); assay: as above; details: both partners purified
# GABARAPL1 WT [3] = molecular target: T5, GABARAPL1 WT (UniProt Q9H0R8 1-117); assay: as above; details: both partners purified
# [4] = molecular target: T2, Atg8 K26P (in the crystallised …); assay: crystal structure; the AIM sequence fused to the N terminus of Atg8 K26P or GABARAP F3S V4T on one chain; sitting-drop vapor diffusion at 20 °C; molecular replacement; details: both partners purified
# LC3A WT [5] = molecular target: T3, LC3A WT; assay: ITC; peptide in the syringe (0.5 mM) titrated into 200 µl of the Atg8 homologue in the cell at a 10 times lower concentration; MicroCal iTC200, 25 °C, stirring at 1000 rpm; single-site binding model; N fixed to 1.0 when the fitting was not convergent due to weak interaction; errors are fitting errors; details: both partners purified; remark: listed apart in the source
# GABARAPL2 WT [6] = molecular target: T4, GABARAPL2 WT; assay: as above; details: both partners purified; remark: listed apart in the source
# GABARAPL1 WT [7] = molecular target: T5, GABARAPL1 WT; assay: as above; details: both partners purified; remark: listed apart in the source
# LC3B WT (rat LC3B 1-120) [8] = molecular target: T6, LC3B WT (rat LC3B 1-120) (rat, UniProt Q62625 1-120); assay: as above; details: both partners purified
# [9] = molecular target: T7, GABARAP WT (human GABARAP 1-116) (human, UniProt O95166 1-116); assay: as above; details: both partners purified
# [10] = molecular target: the molecule itself; assay: co-IP; two-step: anti-FLAG beads, elution with 3 x FLAG peptide, then GFP nanobody-conjugated beads, blot for Atg40-HA; wild-type cells; larger oligomers significantly decreased in atg1Δ, atg2Δ and atg8Δ cells
# [11] = molecular target: the molecule itself; assay: SEC-MALS; Atg40-6His solubilized in DDM; Superdex 200 increase 10/300 in 20 mM Tris-HCl pH 8.0, 150 mM NaCl, 0.03% DDM, room temperature
# LC3B WT (rat LC3B 1-120) [12] = molecular target: T6, LC3B WT (rat LC3B 1-120); assay: ITC; peptide in the syringe (0.5 mM) titrated into 200 µl of the Atg8 homologue in the cell at a 10 times lower concentration; MicroCal iTC200, 25 °C, stirring at 1000 rpm; single-site binding model; N fixed to 1.0 when the fitting was not convergent due to weak interaction; errors are fitting errors; details: both partners purified; remark: listed apart in the source
# [13] = molecular target: T7, GABARAP WT (human GABARAP 1-116); assay: as above; details: both partners purified; remark: listed apart in the source
# Chain of LC3C WT (Q9BXW4 1-126): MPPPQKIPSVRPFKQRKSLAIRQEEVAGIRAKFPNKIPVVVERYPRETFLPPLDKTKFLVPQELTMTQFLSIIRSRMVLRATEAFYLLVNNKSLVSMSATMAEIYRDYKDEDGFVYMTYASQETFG
# T4 sequence (P60520 whole entry): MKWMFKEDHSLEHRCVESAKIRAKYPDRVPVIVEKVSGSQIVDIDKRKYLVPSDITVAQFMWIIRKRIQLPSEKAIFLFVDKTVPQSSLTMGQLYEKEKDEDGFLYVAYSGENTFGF
# T7 sequence (O95166 1-116): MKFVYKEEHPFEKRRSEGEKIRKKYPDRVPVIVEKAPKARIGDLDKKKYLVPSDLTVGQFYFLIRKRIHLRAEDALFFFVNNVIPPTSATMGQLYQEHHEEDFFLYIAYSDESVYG
# T5 sequence (Q9H0R8 whole entry, the tested form may be a part): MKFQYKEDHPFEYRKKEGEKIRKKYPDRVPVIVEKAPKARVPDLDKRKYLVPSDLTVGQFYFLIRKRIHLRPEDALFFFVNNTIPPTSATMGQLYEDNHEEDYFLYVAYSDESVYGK
binder,measurement,setting,value
"TSTEFPNDYDFMEDILDET (peptide, UniProt Q99325 234-252, looked up, Atg40, S. cerevisiae, residues 234-252; also called wild-type peptide; source: synthetic peptide (Liberty Blue peptide synthesizer), SEC) [Atg40^234–252 peptide]",Kd,Atg8 (1-116) K26P,0.59 µM
"NDFEMITKY (SEC62, human, residues 361-368 (lacks the helix C-terminal to the AIM/LIR); Tyr attached to the C terminus for quantification by absorbance at 280 nm; also called Sec62361-368 WT (Δhelix); source: synthetic peptide (BEX Co., Ltd.), SEC) [SEC62361-368 (Δhelix) peptide]",Kd,LC3C WT,31.9 µM
same,Kd,LC3A WT [1],54.6 µM
same,stoichiometry N,LC3A WT [1],0.98 site
same,Kd,GABARAPL2 WT [2],90.9 µM
same,Kd,GABARAPL1 WT [3],13.3 µM
same,stoichiometry N,GABARAPL1 WT [3],0.99 site
"EFPNDYDFMEDILDET (domain or fragment, S. cerevisiae, UniProt Q99325 237-252, looked up) [Atg40^237–252 (in the crystallised Atg40^237–252-Atg8 fusion)]",binding result,[4],binds
ESPFEVIIDKAAFDKEFKDSY (numbers count on: isoform e; Tyr attached to the C terminus for quantification by absorbance at 280 nm; source: synthetic peptide) [RTN3245-264 peptide],Kd,LC3A WT [5],17.2 µM
same,stoichiometry N,LC3A WT [5],0.55 site
same,Kd,GABARAPL2 WT [6],17.4 µM
same,stoichiometry N,GABARAPL2 WT [6],0.51 site
same,Kd,GABARAPL1 WT [7],5 µM
same,stoichiometry N,GABARAPL1 WT [7],0.81 site
same,Kd,LC3B WT (rat LC3B 1-120) [8],28.8 µM
same,Kd,[9],5.03 µM
same,stoichiometry N,[9],0.74 site
"Atg40-HA (natural protein, S. cerevisiae, UniProt Q99325 1-256, looked up, Atg40, ER-phagy receptor of S. cerevisiae; also called Atg40-FLAG; Atg40-GFP; source: S. cerevisiae cells treated with rapamycin, in lysate) MFNLILWPLFLLTSVAIPLQLTLEVVYLTSSVDFSKASAAKTATSLGQSPVVITIYKSLLKYWSLYEFIHFIYLYTPIDAFLNFLPFTSLLMSFGSICLTRELVYDFIAFMESQNKLTGFLNKITEPNFNSYLLFSSIYNIWFADDTNDKFLFGKLTQILISVTKRYEFPRTFYLAKVSDFLQNLILTRLRPFVTEQPQGDKNRYQNGDRESTKNGAAYQKSSQQSSSFEQNFTSTEFPNDYDFMEDILDETTELD",stoichiometry N,[10],> 2
"Atg40-6His (natural protein, S. cerevisiae, UniProt Q99325 1-256, looked up, Atg40, S. cerevisiae; Atg40-6His is printed as 30.6 kDa; also called purified Atg40; source: S. cerevisiae BJ3505 (GPD promoter), purified from membranes in DDM (Ni-NTA, SEC)) MFNLILWPLFLLTSVAIPLQLTLEVVYLTSSVDFSKASAAKTATSLGQSPVVITIYKSLLKYWSLYEFIHFIYLYTPIDAFLNFLPFTSLLMSFGSICLTRELVYDFIAFMESQNKLTGFLNKITEPNFNSYLLFSSIYNIWFADDTNDKFLFGKLTQILISVTKRYEFPRTFYLAKVSDFLQNLILTRLRPFVTEQPQGDKNRYQNGDRESTKNGAAYQKSSQQSSSFEQNFTSTEFPNDYDFMEDILDETTELD",stoichiometry N,[11],2
YESPFEVIID (numbers count on: isoform e; also called RTN3245-253 WT (Δhelix); source: synthetic peptide) [RTN3245-253 (Δhelix) peptide],Kd,LC3A WT [5],21.7 µM
same,stoichiometry N,LC3A WT [5],0.54 site
same,Kd,LC3B WT (rat LC3B 1-120) [8],31.1 µM
same,stoichiometry N,LC3B WT (rat LC3B 1-120) [8],0.91 site
same,Kd,[9],14 µM
same,stoichiometry N,[9],0.82 site
GPHSSGNGNDFEMITKEELEQQTDY [SEC62355-376 WT peptide],Kd,LC3C WT,5.18 µM
same,stoichiometry N,LC3C WT,0.46 site
same,Kd,LC3A WT [1],0.92 µM
same,stoichiometry N,LC3A WT [1],0.78 site
same,Kd,GABARAPL2 WT [2],0.58 µM
same,stoichiometry N,GABARAPL2 WT [2],0.78 site
same,Kd,GABARAPL1 WT [3],0.39 µM
same,stoichiometry N,GABARAPL1 WT [3],0.83 site
same,Kd,LC3B WT (rat LC3B 1-120) [12],3.37 µM
same,stoichiometry N,LC3B WT (rat LC3B 1-120) [12],0.74 site
GPHSSGNGNDFEMATKEELEQQTDY [SEC62355-376 I366A peptide],Kd,[13],14.5 µM
same,stoichiometry N,[13],0.87 site

# Source: paper PMC7335187, “Super-assembly of ER-phagy receptor Atg40 induces local ER remodeling at contacts with forming autophagosomal membranes” (Nature Communications, 2020)
